Experimental findings from patent US20260242478A1 (published 2026) are described below.

Experiment [1] deals with T1, Anti-CD28 Fab (SEQ ID NOs: 696, 697).
T1 construct: In the phage ELISA the Fab was biotinylated and captured on neutravidin coated plates
The experiment is described as follows: phage ELISA as above with wells pre-incubated with CD28 antigen as competitor. A general note: ELISA stands for enzyme-linked immunosorbent assay.
T1 sequence (VH, as listed by the source, chain 1 of 2): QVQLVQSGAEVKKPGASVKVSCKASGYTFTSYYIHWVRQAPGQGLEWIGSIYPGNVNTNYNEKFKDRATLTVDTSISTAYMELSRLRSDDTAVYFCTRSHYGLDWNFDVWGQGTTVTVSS
T1 sequence (VL, as listed by the source, chain 2 of 2): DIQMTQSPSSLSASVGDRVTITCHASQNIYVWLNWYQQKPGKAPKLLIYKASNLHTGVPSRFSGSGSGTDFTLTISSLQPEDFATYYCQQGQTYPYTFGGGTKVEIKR
Experimental: (§1) After panning, phage infected bacteria were plated out and colonies picked into 96 well blocks. Clonal phage was then amplified and separated from bacterial cells via centrifugation.
(§2) Clonal phage were harvested as crude supematants and screened via standard ELISAs. […] Prior to the addition of clonal phage, wells were incubated with blocking buffer and CD28 antigen or blocking buffer alone. Without washing or aspirating, clonal phage supematants were then added to the wells and incubated for a short time. Wells were then washed followed by detection of bound phage using a horse radish conjugated anti-M13 antibody. Clonal phage of interest were then sent for sequence analysis.

Experiment [2] shares this target. In words: phage ELISA; biotinylated anti-CD28 Fab on neutravidin plate, clonal phage supernatant, anti-M13 HRP detection.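 Also: crude supernatants of single phage clones picked after panning were screened for binding.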
Target sequence in this assay (VH, as listed by the source, chain 1 of 2): as the sequence (VH, as listed by the source, chain 1 of 2) above
Target sequence in this assay (VL, as listed by the source, chain 2 of 2): as the sequence (VL, as listed by the source, chain 2 of 2) above
In experiment [3] the target is Anti-CD28 Fab (SEQ ID NOs: 696, 697). The experiment is described as follows: phage binding ELISA; biotinylated Fab on neutravidin plate, anti-M13 HRP detection.
Target sequence in this assay (VH, as listed by the source, chain 1 of 2): as the sequence (VH, as listed by the source, chain 1 of 2) above
Target sequence in this assay (VL, as listed by the source, chain 2 of 2): as the sequence (VL, as listed by the source, chain 2 of 2) above
Experimental: as §1, §2
Experiment [4] shares this target. In words: phage binding ELISA on Fab coated plate; CD28 antigen as competitor.
Target sequence in this assay (VH, as listed by the source, chain 1 of 2): as the sequence (VH, as listed by the source, chain 1 of 2) above
Target sequence in this assay (VL, as listed by the source, chain 2 of 2): as the sequence (VL, as listed by the source, chain 2 of 2) above
Experimental: as §1, §2
Experiment [5] has as its target T2, Anti-CD28 Fab (SEQ ID NOs: 696, 697).
T2 construct: In the phage ELISA the Fab was biotinylated and captured on neutravidin coated plates
In words: phage ELISA on captured anti-CD28 Fab, wells pre-incubated with CD28 antigen as competitor.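 Also: crude clonal phage supernatants added without washing, bound phage read out by HRP-coupled anti-M13 antibody, reference wells given blocking buffer only instead of CD28.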
T2 sequence (VH, as listed by the source, chain 1 of 2): as the sequence (VH, as listed by the source, chain 1 of 2) above
T2 sequence (VL, as listed by the source, chain 2 of 2): as the sequence (VL, as listed by the source, chain 2 of 2) above
Experimental: as §1, §2

Experiment [6] shares this target. In words: phage ELISA, clonal phage on biotinylated anti-CD28 Fab captured on neutravidin plates.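 Also: crude clonal phage supernatants added to wells pretreated with CD28 antigen or with blocking buffer only, bound phage detected by HRP-linked anti-M13 antibody.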
Target sequence in this assay (VH, as listed by the source, chain 1 of 2): as the sequence (VH, as listed by the source, chain 1 of 2) above
Target sequence in this assay (VL, as listed by the source, chain 2 of 2): as the sequence (VL, as listed by the source, chain 2 of 2) above
Experimental: as §1, §2
For experiment [7], the target named is T3, Anti-CD28 Fab (SEQ ID NOs: 696, 697).
T3 construct: In the phage ELISA the Fab was biotinylated and captured on neutravidin coated plates
The experiment is described as follows: phage ELISA; captured anti-CD28 Fab pre-incubated with CD28 antigen as competitor, anti-M13 HRP detection.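 Also: crude clonal phage supernatants screened by ELISA, with wells pre-incubated with CD28 antigen in blocking buffer, compared against wells given blocking buffer alone as control.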
Experimental: as §1, §2

Experiment [8] has the same target. In words: phage ELISA; biotinylated anti-CD28 Fab on neutravidin plate, clonal phage supernatant, anti-M13 HRP detection.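 Also: crude supernatants of single phage clones picked after panning were screened for binding.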 This is another data set of the same source.

Turning to YCDGHSLQYMSKCL (Tested as clonal phage supernatant) [Phage-1039], the “Anti-CD28 Fab signal in the presence of CD28 (phage binding ELISA)” value in experiment [1] came to 0.06. Further, the “Anti-CD28 Fab signal (phage binding ELISA)” value in experiment [2] is 1.45.
On to YCEGHRPEYMQKCV [Phage-1024], for which, in experiment [3], the “Anti-CD28 Fab (SEQ ID NOs: 696, 697) signal” value was 1.48. For the same molecule, the “Anti-CD28 Fab signal in the presence of CD28” value in experiment [4] worked out at 0.09.
Regarding YCLGHSWPYIHKCY [Phage-1052], in experiment [5], the “Anti-CD28 Fab signal in the presence of CD28 (phage binding ELISA)” value was found to be 0.07. The “Anti-CD28 Fab signal (phage binding ELISA)” value in experiment [6] turned out to be 1.43.
Consider YCDGHLAIYMWKCL (Tested as clonal phage supernatant) [Phage-1037], for which the “Anti-CD28 Fab signal in the presence of CD28 (phage binding ELISA)” value in experiment [1] came out at 0.09. For the same molecule, the “Anti-CD28 Fab signal (phage binding ELISA)” value in experiment [2] was 1.45.
The corresponding values for YCDGHAEEYMAKCL (Tested as clonal phage supernatant) [Phage-1038] are 0.06 and 1.45.
With YCAGHTQEYIEKCL [Phage-1029], in experiment [3], the “Anti-CD28 Fab (SEQ ID NOs: 696, 697) signal” value came out at 1.47. Also, in experiment [4], the “Anti-CD28 Fab signal in the presence of CD28” value stood at 0.06.
The corresponding values for YCEGHSLEHIAKCL [Phage-1034] are 1.46 and 0.07.
Regarding YCDGHSPAFIQKCL [Phage-1056], the “Anti-CD28 Fab signal in the presence of CD28 (phage binding ELISA)” value in experiment [5] was determined as 0.08. For the same molecule, the “Anti-CD28 Fab signal (phage binding ELISA)” value in experiment [6] amounted to 1.42.
Take YCQGHIEPYLAKCL (Tested as clonal phage supernatant) [Phage-1036]: the “Anti-CD28 Fab signal in the presence of CD28 (phage binding ELISA)” value in experiment [1] came to 0.05. Also, the “Anti-CD28 Fab signal (phage binding ELISA)” value in experiment [2] was 1.46.
On to YCDGHLPEYITKCL [Phage-1023], for which the “Anti-CD28 Fab (SEQ ID NOs: 696, 697) signal” value in experiment [3] turned out to be 1.49. Besides, the “Anti-CD28 Fab signal in the presence of CD28” value in experiment [4] was 0.06.
The corresponding values for YCEGHLDQYMTKCL [Phage-1028] are 1.47 and 0.08.
For the molecule YCDGHSLEYIEKCL [Phage-1051], the “Anti-CD28 Fab signal in the presence of CD28 (phage binding ELISA)” value in experiment [5] was 0.06. Further, in experiment [6], the “Anti-CD28 Fab signal (phage binding ELISA)” value came to 1.43.
The corresponding values for YCVGHLPQYMQKCL [Phage-1049] are 0.06 and 1.43.
In the case of YCDGHTPEYMWKCL [Phage-1054], the “Anti-CD28 Fab signal in the presence of CD28 (phage binding ELISA)” value in experiment [5] was 0.06. The “Anti-CD28 Fab signal (phage binding ELISA)” value in experiment [6] was 1.43.
Consider YCDGHSLEYIDKCM [Phage-1057], for which, in experiment [5], the “Anti-CD28 Fab signal in the presence of CD28 (phage binding ELISA)” value is 0.09. Also, the “Anti-CD28 Fab signal (phage binding ELISA)” value in experiment [6] was 1.42.
As for YCAGHAEEYLEKCL [Phage-1060], the “Anti-CD28 Fab signal in the presence of CD28 (phage binding ELISA)” value in experiment [5] worked out at 0.15. In experiment [6], the “Anti-CD28 Fab signal (phage binding ELISA)” value came to 1.41.
The corresponding values for YCDGHSHEYMQKCL [Phage-1061] are 0.06 and 1.41.
Turning to YCDGHLPEYMNQCL (Tested as clonal phage supernatant) [Phage-1047], the “Anti-CD28 Fab signal in the presence of CD28 (phage binding ELISA)” value in experiment [1] came out at 0.07. The “Anti-CD28 Fab signal (phage binding ELISA)” value in experiment [2] was 1.44.
Consider YCDGHLPEYIAKCQ [Phage-1050], for which the “Anti-CD28 Fab signal in the presence of CD28 (phage binding ELISA)” value in experiment [5] was determined as 0.07. Besides, the “Anti-CD28 Fab signal (phage binding ELISA)” value in experiment [6] turned out to be 1.43.
With YCAGHLPQYIQKCL (Tested as clonal phage supernatant) [Phage-1041], the “Anti-CD28 Fab signal in the presence of CD28 (phage binding ELISA)” value in experiment [1] amounted to 0.07. Further, the “Anti-CD28 Fab signal (phage binding ELISA)” value in experiment [2] is 1.44.
For the molecule YCDGHVAEYRHKCL [Phage-1027], the “Anti-CD28 Fab (SEQ ID NOs: 696, 697) signal” value in experiment [3] amounted to 1.47. Also, in experiment [4], the “Anti-CD28 Fab signal in the presence of CD28” value was 0.06.
Regarding YCQGHSPNYITKCF [Phage-1058], the “Anti-CD28 Fab signal in the presence of CD28 (phage binding ELISA)” value in experiment [5] came out at 0.06. The “Anti-CD28 Fab signal (phage binding ELISA)” value in experiment [6] is 1.41.
The corresponding values for YCEGHSQQYMQKCL [Phage-1055] are 0.08 and 1.42.
As to YCEGHLAIYQKKCL (Tested as clonal phage supernatant) [Phage-1042], the “Anti-CD28 Fab signal in the presence of CD28 (phage binding ELISA)” value in experiment [1] came to 0.06. Besides, in experiment [2], the “Anti-CD28 Fab signal (phage binding ELISA)” value was 1.44.
The corresponding values for YCEGHSMEYIQKCL (Tested as clonal phage supernatant) [Phage-1045] are 0.07 and 1.44.
Consider YCEGHAVEYMAKCL (Tested as clonal phage supernatant) [Phage-1043], for which the “Anti-CD28 Fab signal in the presence of CD28 (phage binding ELISA)” value in experiment [1] was 0.07. Besides, the “Anti-CD28 Fab signal (phage binding ELISA)” value in experiment [2] stood at 1.44.
In the case of YCEGHTPVYMPKCL [Phage-1035], the “Anti-CD28 Fab (SEQ ID NOs: 696, 697) signal” value in experiment [3] came out at 1.46. Moreover, the “Anti-CD28 Fab signal in the presence of CD28” value in experiment [4] is 0.06.
With YCEGHLPQYMTKCI (Tested as clonal phage supernatant) [Phage-1040], in experiment [1], the “Anti-CD28 Fab signal in the presence of CD28 (phage binding ELISA)” value was 0.08. Besides, the “Anti-CD28 Fab signal (phage binding ELISA)” value in experiment [2] amounted to 1.44.
The corresponding values for YCDGHNFQYMEKCL (Tested as clonal phage supernatant) [Phage-1048] are 0.06 and 1.44.
As for YCDGHLAIYIGKCL [Phage-1030], the “Anti-CD28 Fab (SEQ ID NOs: 696, 697) signal” value in experiment [3] came to 1.47. Besides, the “Anti-CD28 Fab signal in the presence of CD28” value in experiment [4] was 0.08.

B1: Phage-1063 (peptide)
peptide: YCDGHLMEYKAKCL
notes: Clonal phage supernatant; not shown: fused to the pIII filament protein of the bacteriophage
Consider B1, for which the “Anti-CD28 Fab signal in the presence of CD28 (phage binding ELISA)” value in experiment [7] amounted to 0.06. In experiment [8], the “Anti-CD28 Fab signal (phage binding ELISA)” value was found to be 1.41.
As to YCDGHAPEYLGKCL [Phage-1059], the “Anti-CD28 Fab signal in the presence of CD28 (phage binding ELISA)” value in experiment [5] was 0.06. Further, the “Anti-CD28 Fab signal (phage binding ELISA)” value in experiment [6] amounted to 1.41.
YCDGHSLEYMVKCL [Phage-1033]: the “Anti-CD28 Fab (SEQ ID NOs: 696, 697) signal” value in experiment [3] came out at 1.46. For the same molecule, in experiment [4], the “Anti-CD28 Fab signal in the presence of CD28” value is 0.06.

B2: Phage-1062 (peptide)
peptide: YCAGHSAEYMSKCL
notes: as for B1
As to B2, the “Anti-CD28 Fab signal in the presence of CD28 (phage binding ELISA)” value in experiment [7] was 0.07. Moreover, the “Anti-CD28 Fab signal (phage binding ELISA)” value in experiment [8] stood at 1.41.
For YCAGHTVENMAKCL [Phage-1025], the “Anti-CD28 Fab (SEQ ID NOs: 696, 697) signal” value in experiment [3] amounted to 1.48. Besides, the “Anti-CD28 Fab signal in the presence of CD28” value in experiment [4] is 0.07.
For YCEGHSQEYMAKCL (Tested as clonal phage supernatant) [Phage-1046], the “Anti-CD28 Fab signal in the presence of CD28 (phage binding ELISA)” value in experiment [1] was found to be 0.06. Further, the “Anti-CD28 Fab signal (phage binding ELISA)” value in experiment [2] was determined as 1.44.
Regarding YCDGHLEIYMSKCL [Phage-1031], in experiment [3], the “Anti-CD28 Fab (SEQ ID NOs: 696, 697) signal” value turned out to be 1.46. Also, in experiment [4], the “Anti-CD28 Fab signal in the presence of CD28” value stood at 0.08.
For YCEGHLPIYMEKCL (Tested as clonal phage supernatant) [Phage-1044], the “Anti-CD28 Fab signal in the presence of CD28 (phage binding ELISA)” value in experiment [1] was 0.07. Besides, in experiment [2], the “Anti-CD28 Fab signal (phage binding ELISA)” value amounted to 1.44.
As to YCEGHVLEYRGKCD [Phage-1026], in experiment [3], the “Anti-CD28 Fab (SEQ ID NOs: 696, 697) signal” value was 1.48. For the same molecule, the “Anti-CD28 Fab signal in the presence of CD28” value in experiment [4] came out at 0.09.
For YCDGHLDEYMLKCL [Phage-1053], the “Anti-CD28 Fab signal in the presence of CD28 (phage binding ELISA)” value in experiment [5] amounted to 0.06. Further, the “Anti-CD28 Fab signal (phage binding ELISA)” value in experiment [6] came to 1.43.
In the case of YCDGHLLEYMSKCL [Phage-1032], in experiment [3], the “Anti-CD28 Fab (SEQ ID NOs: 696, 697) signal” value came to 1.46. For the same molecule, the “Anti-CD28 Fab signal in the presence of CD28” value in experiment [4] is 0.09.
